Tests used:
[1] = test system: Pfg; test: Binding of biotinylated Pfg to immobilized fibrinogen (polystyrene plate); parameters: species or system Propionibacterium acnes; details: various quantities of fibrinogen immobilized; biotinylated Pfg 0.1 μg/ml, 2 h at 23° C.
Description: FIG. 5: Binding of P. acnes surface proteins to fibrinogen. (A) Various quantities of human fibrinogen (hFg) and bovine fibrinogen (bFg) were immobilized onto a 96-well polystyrene plate at 4° C. for 18 h and incubated with biotinylated Pfg at 0.1 μg/ml for 2 h at 23° C. Bovine serum albumin (BSA) was used as negative control. Bound material was detected by using the HRP-streptavidin conjugate. Peroxidase activity was measured by using the ABTS substrate at 405 nm. Proteins (10 μg per lane) were separated by 10% SDS-PAGE and detected by (B) Commassie blue staining, and transferred to nitrocellulose membrane and incubated with (C) HRP-streptavidine alone, and (D) biotinylated Pfg (0.1 μg/ml). Lanes 1: molecular weight standards. Lane 2: BSA. […]
To characterize the interaction between P. acnes and ligands, we used biotinylated molecules in quantitative and qualitative assays. […] For quantitative analysis, unlabeled protein were diluted into 50 mM carbonate-bicarbonate, pH 9.6 buffer to yield a protein concentration ranging from 0.01 to 50 μg/ml, and then immobilized to 96-well polystyrene plates at 4° C. overnight. […] After washing, bound peroxidase was detected using the chromogenic peroxidase substrate ABTS. […] Binding activity was detected by incubating the membranes with 20 ml of PBT containing biotinylated proteins (0.1 μg/ml) for 2 h at room temperature followed by three washes with PBT. […]

[2] = test system: MRC5 cells; test: IL-8 production by P. acnes-stimulated MRC5 (ELISA); assay type: cell-based, human; details: 0.87 to 7 μM
Description: FIG. 15: Dose-dependent inhibition of IL-8 production by fibroblast stimulated by P. acnes pre-treated by recombinant peptide. MRC5 cells were incubated for 18 h with P. acnes RON strain at a concentration adjusted to 0.2 of absorbance at 600 nm (blue bar) and with P. acnes pretreated with recombinant peptide Fg1 (light gray bar) and Fg2 (dark gray bar). IL-8 concentration was measured by ELISA as described in Materials and Methods. Control experiment was done on unstimulated HaCaT cell (red bar). Data are means±S.D. of three separate experiments. Statistical significance is indicated by * (P<0.05), ** (P<0.01), *** (P<0.001), and **** (P<0.0001), respectively.
For experiences of stimulation with P. acnes, cells were incubated with the P. acnes suspension adjusted at the appropriate concentration, pre-treated for 1 h at 37° C. or not with fibrinogen recombinant peptides Fg1 and Fg2 at the concentrations 0.87, 1.75, 3.5 or 7 μM for the desired period of time at 37° C. in 5% CO2.
Human IL-1ß, IL-8, IL-12, hBD-2, and TNF-α protein concentration was measured in the supernatants of stimulated cells using various ELISA Set kits (Ready-Set-Go kit from eBioscience for acne experiments, and for psoriasis experiments the Duo set IL-8 kit from R&D Systems and the BD-2 Human Development (hBD-2) from Peprotech) according to the manufacturer's instructions. We used serial dilutions of recombinant human IL-1ß, IL-8, IL-12 and TNF-α for standard curve. The optical density was determined at 450 nm at a wavelength correction of 540 nm.
To assess the efficacy of Fg1 recombinant peptide, the production of O2^∘− and H2O2 by HaCaT cells NHDK, THP-1, MRC5 and HDF stimulated by pretreated P. acnes strains 6919, RON and PIE was measured. The amount of ROS produced was compared to that produced by the stimulated cells with untreated bacteria. Production baseline was obtained by measuring ROS on unstimulated cells. The production of IL-1ß, IL-8, IL-12 and TNF-α was also measured in all conditions cited above. The measurement of the production of ROS is performed by spectrofluorimetry in the presence of specific fluorochromes directly on the monolayer cell. Measurement of cytokine production was performed in parallel on the cell culture supernatant.
Two sets of experiments were implemented: 1) The cells were stimulated (18 h at 37° C.) by P. acnes strains previously pretreated with Fg1 and Fg2 peptides at the final concentrations ranging from 0.87 to 7 μM for 1 h at 37° C.; and 2) The cells were pretreated first with Fg1 and Fg2 peptides at the final concentrations ranging from 0.87 to 7 μM for 24 h at 37° C. and stimulated (18 h at 37° C.) by P. acnes strains.

Row | Molecule | Binding of biotinylated Pfg to immobilized fibrinogen [1] | Inhibition of Interleukine 8 (IL-8) production ([2]; P. acnes 6919, set I, bacteria first pretreated) | Inhibition of Interleukine 8 (IL-8) production ([2]; P. acnes 6919, set II, cells first pretreated) | Inhibition of Interleukine 8 (IL-8) production ([2]; P. acnes PIE, set I, bacteria first pretreated) | Inhibition of Interleukine 8 (IL-8) production ([2]; P. acnes PIE, set II, cells first pretreated) | Inhibition of Interleukine 8 (IL-8) production ([2]; P. acnes RON, set I, bacteria first pretreated) | Inhibition of Interleukine 8 (IL-8) production ([2]; P. acnes RON, set II, cells first pretreated)
1 | human fibrinogen: purified commercial human fibrinogen (Sigma), glycoprotein hexamer of Aα, Bß and γ chains | dose-dependent with a higher affinity for hFg | – | – | – | – | – | –
2 | MKRMVSWSFHKLKTMKHLLLLLLCVFLVKSQGVNDNEEGFFSARGHRPLDKKREEAPSLRPAPPPISGGGYRARPAKAAATQKKVERKAPDAGGCLHADPDLGVLC (protein, GST fusion; fragment Fg1, fragment of Bß chain of human fibrinogen having 106 amino acids; recombinant GST-fused peptide expressed in E. coli) MKRMVSWSFHKLKTMKHLLLLLLCVFLVKSQGVNDNEEGFFSARGHRPLDKKREEAPSLRPAPPPISGGGRARPAKAAATQKKVERKAPDAGGCLHADPDLGVLCMKRMVSWSFHKLKTMKHLLLLLLCVFLVKSQGVNDNEEGFFSARGHRPLDKKREEAPSLRPAPPPISGGGYRARPAKAAATQKKVERKAPDAGGCLHADPDLGVLC | – | pos | pos | pos | pos | pos | pos
